B1: Mothers against decapentaplegic homolog 4 (Homo sapiens), Q13485 (parent)
chain: MDNMSITNTPTSNDACLSIVHSLMCHRQGGESETFAKRAIESLVKKLKEKKDELDSLITAITTNGAHPSKCVTIQRTLDGRLQVAGRKGFPHVIYARLWRWPDLHKNELKHVKYCQYAFDLKCDSVCVNPYHYERVVSPGIDLSGLTLQSNAPSSMMVKDEYVHDFEGQPSLSTEGHSIQTIQHPPSNRASTETYSTPALLAPSESNATSTANFPNIPVASTSQPASILGGSHSEGLLQIASGPQPGQQQNGFTGQPATYHHNSTTTWTGSRTAPYTPNLPHHQNGHLQHHPPMPPHPGHYWPVHNELAFQPPISNHPAPEYWCSIAYFEMDVQVGETFKVPSSCPIVTVDGYVDPSGGDRFCLGQLSNVHRTEAIERARLHIGKGVQLECKGEGDVWVRCLSDHAVFVQSYYLDREAGRAPGDAVHKIYPSAYIKVFDLRQCHRQMQQQAATAQAAAAAQAAAVAGNIPGPGSVGGIAPAISLSAAAGIGVDDLRRLCILRMSFVKGWGPDYPRQSIKETPCWIEIHLHRALQLLDEVLHTMPIADPQPLD
partner: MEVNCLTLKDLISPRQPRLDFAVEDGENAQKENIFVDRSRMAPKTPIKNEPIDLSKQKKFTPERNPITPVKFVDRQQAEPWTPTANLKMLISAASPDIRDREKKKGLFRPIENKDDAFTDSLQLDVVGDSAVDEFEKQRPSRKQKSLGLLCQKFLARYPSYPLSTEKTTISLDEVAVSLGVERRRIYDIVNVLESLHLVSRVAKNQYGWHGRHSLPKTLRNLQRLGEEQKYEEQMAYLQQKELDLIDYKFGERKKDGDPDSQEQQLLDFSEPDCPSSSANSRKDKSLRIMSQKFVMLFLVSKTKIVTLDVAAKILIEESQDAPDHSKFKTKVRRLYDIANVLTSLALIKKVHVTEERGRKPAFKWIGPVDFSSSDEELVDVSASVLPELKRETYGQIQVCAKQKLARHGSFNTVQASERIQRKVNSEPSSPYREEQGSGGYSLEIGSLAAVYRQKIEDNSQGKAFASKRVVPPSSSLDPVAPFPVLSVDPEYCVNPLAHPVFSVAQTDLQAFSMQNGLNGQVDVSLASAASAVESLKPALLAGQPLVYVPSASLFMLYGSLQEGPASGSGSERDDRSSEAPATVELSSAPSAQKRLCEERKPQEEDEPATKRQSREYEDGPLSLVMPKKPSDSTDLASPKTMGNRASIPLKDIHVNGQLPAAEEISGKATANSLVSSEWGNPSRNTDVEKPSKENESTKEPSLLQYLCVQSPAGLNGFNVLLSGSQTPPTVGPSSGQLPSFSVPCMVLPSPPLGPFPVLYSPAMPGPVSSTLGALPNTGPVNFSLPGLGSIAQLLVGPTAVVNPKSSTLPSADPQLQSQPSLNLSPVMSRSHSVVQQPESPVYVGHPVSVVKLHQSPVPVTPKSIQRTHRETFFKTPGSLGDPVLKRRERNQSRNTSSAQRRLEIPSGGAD
B2: Mothers against decapentaplegic homolog 4 (Homo sapiens), Q13485 (parent)
chain: B1 chain
partner: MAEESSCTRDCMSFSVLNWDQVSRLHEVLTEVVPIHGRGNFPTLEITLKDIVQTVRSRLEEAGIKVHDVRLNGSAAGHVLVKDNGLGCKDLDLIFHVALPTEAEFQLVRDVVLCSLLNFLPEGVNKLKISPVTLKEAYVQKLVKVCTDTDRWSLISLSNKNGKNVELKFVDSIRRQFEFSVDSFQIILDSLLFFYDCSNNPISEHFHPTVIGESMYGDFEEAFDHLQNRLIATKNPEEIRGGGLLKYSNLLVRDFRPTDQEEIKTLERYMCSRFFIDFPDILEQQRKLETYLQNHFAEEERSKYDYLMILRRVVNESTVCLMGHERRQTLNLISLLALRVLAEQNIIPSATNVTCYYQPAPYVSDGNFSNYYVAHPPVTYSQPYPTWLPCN
B3: Mothers against decapentaplegic homolog 4 (Homo sapiens), Q13485 (parent)
chain: B1 chain
partner: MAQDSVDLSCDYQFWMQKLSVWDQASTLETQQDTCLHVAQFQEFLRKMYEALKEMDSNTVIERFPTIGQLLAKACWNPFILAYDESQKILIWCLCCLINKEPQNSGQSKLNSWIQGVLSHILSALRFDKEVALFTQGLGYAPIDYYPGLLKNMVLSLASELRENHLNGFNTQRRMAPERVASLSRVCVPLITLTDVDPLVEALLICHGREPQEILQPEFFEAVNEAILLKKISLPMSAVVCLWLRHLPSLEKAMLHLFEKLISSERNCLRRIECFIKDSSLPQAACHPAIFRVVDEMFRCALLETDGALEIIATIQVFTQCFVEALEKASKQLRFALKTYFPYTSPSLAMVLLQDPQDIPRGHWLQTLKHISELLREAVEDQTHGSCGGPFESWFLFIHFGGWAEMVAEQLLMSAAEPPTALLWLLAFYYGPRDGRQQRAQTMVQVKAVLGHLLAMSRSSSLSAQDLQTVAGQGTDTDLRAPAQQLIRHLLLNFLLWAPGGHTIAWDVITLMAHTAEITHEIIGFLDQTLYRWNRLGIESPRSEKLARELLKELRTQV
B4: Mothers against decapentaplegic homolog 4 (Homo sapiens), Q13485 (parent)
chain: B1 chain
partner: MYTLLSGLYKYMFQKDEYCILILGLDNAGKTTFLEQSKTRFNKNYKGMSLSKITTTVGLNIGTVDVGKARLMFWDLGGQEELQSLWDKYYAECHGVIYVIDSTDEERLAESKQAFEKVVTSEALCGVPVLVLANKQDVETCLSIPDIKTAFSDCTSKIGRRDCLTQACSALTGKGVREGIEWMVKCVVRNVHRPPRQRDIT
B5: Mothers against decapentaplegic homolog 4 (Homo sapiens), Q13485 (parent)
chain: B1 chain
partner: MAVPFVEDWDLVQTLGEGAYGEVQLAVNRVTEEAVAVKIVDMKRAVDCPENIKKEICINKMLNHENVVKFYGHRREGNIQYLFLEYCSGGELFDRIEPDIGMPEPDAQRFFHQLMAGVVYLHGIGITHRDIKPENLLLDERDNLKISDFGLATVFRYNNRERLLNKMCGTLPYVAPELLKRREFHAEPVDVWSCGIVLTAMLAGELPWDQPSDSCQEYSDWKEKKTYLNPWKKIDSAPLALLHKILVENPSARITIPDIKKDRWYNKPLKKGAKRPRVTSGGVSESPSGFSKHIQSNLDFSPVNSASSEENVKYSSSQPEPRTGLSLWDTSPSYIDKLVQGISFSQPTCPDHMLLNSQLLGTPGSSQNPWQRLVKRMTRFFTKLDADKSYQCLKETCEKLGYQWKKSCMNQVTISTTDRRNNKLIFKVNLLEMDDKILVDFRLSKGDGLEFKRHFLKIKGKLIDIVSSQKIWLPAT
B6: Mothers against decapentaplegic homolog 4 (Homo sapiens), Q13485 (parent)
chain: B1 chain
partner: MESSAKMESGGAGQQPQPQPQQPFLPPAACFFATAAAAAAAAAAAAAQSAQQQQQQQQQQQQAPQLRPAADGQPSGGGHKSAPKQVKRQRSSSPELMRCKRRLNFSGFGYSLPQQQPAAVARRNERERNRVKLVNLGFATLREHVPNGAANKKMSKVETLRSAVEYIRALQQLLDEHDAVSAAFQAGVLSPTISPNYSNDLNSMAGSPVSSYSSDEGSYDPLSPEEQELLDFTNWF
B7: Mothers against decapentaplegic homolog 4 (Homo sapiens), Q13485 (parent)
chain: B1 chain
partner: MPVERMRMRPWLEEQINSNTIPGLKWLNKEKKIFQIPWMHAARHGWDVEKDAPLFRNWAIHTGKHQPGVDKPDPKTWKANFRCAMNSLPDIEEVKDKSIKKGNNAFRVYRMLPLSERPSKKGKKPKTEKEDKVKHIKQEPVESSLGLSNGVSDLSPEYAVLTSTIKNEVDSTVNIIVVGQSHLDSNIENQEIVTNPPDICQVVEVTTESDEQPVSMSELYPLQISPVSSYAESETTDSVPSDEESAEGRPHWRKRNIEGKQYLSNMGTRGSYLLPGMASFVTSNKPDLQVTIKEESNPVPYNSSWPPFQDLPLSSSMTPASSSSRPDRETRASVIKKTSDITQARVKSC
B8: Mothers against decapentaplegic homolog 4 (Homo sapiens), Q13485 (parent)
chain: B1 chain
partner: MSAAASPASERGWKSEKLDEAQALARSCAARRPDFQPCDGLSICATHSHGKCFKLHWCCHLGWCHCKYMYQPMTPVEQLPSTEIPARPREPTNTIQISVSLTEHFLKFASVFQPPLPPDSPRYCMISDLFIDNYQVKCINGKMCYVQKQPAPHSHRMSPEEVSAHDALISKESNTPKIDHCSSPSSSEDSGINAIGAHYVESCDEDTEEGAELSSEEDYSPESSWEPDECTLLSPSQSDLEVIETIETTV

Variants of: B1
Settings: with e2f7_human E2F7, Q96AV8

Variant	effect of a mutation on the interaction
G386D	with no effect

Variants of: B1
Settings: with e2f7_human E2F7, Q96AV8
Remark: another data set of the same source

Variant	effect of a mutation on the interaction
D351H	with no effect

Variants of: B2
Settings: with tet5c_human TENT5C

Variant	effect of a mutation on the interaction
R361H	with no effect

Variants of: B2
Settings: with tet5c_human TENT5C
Remark: another data set of the same source

Variant	effect of a mutation on the interaction
R361C	with no effect

Variants of: B2
Settings: with tet5c_human TENT5C
Remark: another data set of the same source

Variant	effect of a mutation on the interaction
D351H	with no effect

Variants of: B2
Settings: with tet5c_human TENT5C
Remark: another data set of the same source

Variant	effect of a mutation on the interaction
G386D	with no effect

Variants of: B3
Settings: with fancc_human FANCC

Variant	effect of a mutation on the interaction
R361C	with no effect

Variants of: B3
Settings: with fancc_human FANCC
Remark: another data set of the same source

Variant	effect of a mutation on the interaction
R361H	with no effect

Variants of: B3
Settings: with fancc_human FANCC
Remark: another data set of the same source

Variant	effect of a mutation on the interaction
G386D	with no effect

Variants of: B3
Settings: with fancc_human FANCC
Remark: another data set of the same source

Variant	effect of a mutation on the interaction
D351H	with no effect

Variants of: B4
Settings: with arfrp_human ARFRP1, Q13795

Variant	effect of a mutation on the interaction
G386D	with no effect

Variants of: B4
Settings: with arfrp_human ARFRP1, Q13795
Remark: another data set of the same source

Variant	effect of a mutation on the interaction
D351H	with no effect

Variants of: B4
Settings: with arfrp_human ARFRP1, Q13795
Remark: another data set of the same source

Variant	effect of a mutation on the interaction
R361C	with no effect

Variants of: B4
Settings: with arfrp_human ARFRP1, Q13795
Remark: another data set of the same source

Variant	effect of a mutation on the interaction
R361H	with no effect

Variants of: B5
Settings: with chk1_human CHEK1, O14757

Variant	effect of a mutation on the interaction
D351H	with no effect

Variants of: B5
Settings: with chk1_human CHEK1, O14757
Remark: another data set of the same source

Variant	effect of a mutation on the interaction
G386D	with no effect

Variants of: B5
Settings: with chk1_human CHEK1, O14757
Remark: another data set of the same source

Variant	effect of a mutation on the interaction
R361H	with no effect

Variants of: B5
Settings: with chk1_human CHEK1, O14757
Remark: another data set of the same source

Variant	effect of a mutation on the interaction
R361C	with no effect

Variants of: B6
Settings: with ascl1_human ASCL1, P50553

Variant	effect of a mutation on the interaction
R361C	with no effect

Variants of: B6
Settings: with ascl1_human ASCL1, P50553
Remark: another data set of the same source

Variant	effect of a mutation on the interaction
R361H	with no effect

Variants of: B6
Settings: with ascl1_human ASCL1, P50553
Remark: another data set of the same source

Variant	effect of a mutation on the interaction
D351H	with no effect

Variants of: B6
Settings: with ascl1_human ASCL1, P50553
Remark: another data set of the same source

Variant	effect of a mutation on the interaction
G386D	with no effect

Variants of: B7
Settings: with irf2_human IRF2, P14316

Variant	effect of a mutation on the interaction
D351H	with no effect

Variants of: B8
Settings: with cc070_human C3orf70, A6NLC5

Variant	effect of a mutation on the interaction
D351H	with no effect

Variants of: B8
Settings: with cc070_human C3orf70, A6NLC5
Remark: another data set of the same source

Variant	effect of a mutation on the interaction
G386D	with no effect

— IntAct's records for PubMed 35512704
